# Experimental data taken from paper PMC5625035, “The Rev1 interacting region (RIR) motif in the scaffold protein XRCC1 mediates a low-affinity interaction with polynucleotide kinase/phosphatase (PNKP) during DNA single-strand break repair” (The Journal of Biological Chemistry, 2017).
# B1: acrylodan-labeled PNKP (PNKP^WFX402-AC) (enzyme)
# chain: not shown
# modifications: acrylodan (6-acryloyl-2-dimethylaminonaphthalene, AC) label, site not stated
# Assays:
# [1] = biological target: B1; assay: other fluorescence titration; quenching of acrylodan fluorescence of PNKP-AC (excitation 380 nm, emission 485-490 nm) by added XRCC1 protein; 25 °C; PNKP-AC 20 nM with full-length XRCC1-His, 80 nM with His-XRCC1^161–406 and in the emission scans with His-XRCC1^FFF; nonlinear regression, unimodal binding; conditions: both partners purified
# [2] = biological target: T1, full-length XRCC1-His (recombinant, from E. coli) (human, UniProt P18887 1-633); assay: as above; conditions: both partners purified
# T1 construct: XRCC1, human, full length, not phosphorylated (made in E. coli); also called wild-type XRCC1; X-ray repair cross-complementing 1; source: E. coli (pET16b-XH), purified
# T1 sequence (P18887 whole entry): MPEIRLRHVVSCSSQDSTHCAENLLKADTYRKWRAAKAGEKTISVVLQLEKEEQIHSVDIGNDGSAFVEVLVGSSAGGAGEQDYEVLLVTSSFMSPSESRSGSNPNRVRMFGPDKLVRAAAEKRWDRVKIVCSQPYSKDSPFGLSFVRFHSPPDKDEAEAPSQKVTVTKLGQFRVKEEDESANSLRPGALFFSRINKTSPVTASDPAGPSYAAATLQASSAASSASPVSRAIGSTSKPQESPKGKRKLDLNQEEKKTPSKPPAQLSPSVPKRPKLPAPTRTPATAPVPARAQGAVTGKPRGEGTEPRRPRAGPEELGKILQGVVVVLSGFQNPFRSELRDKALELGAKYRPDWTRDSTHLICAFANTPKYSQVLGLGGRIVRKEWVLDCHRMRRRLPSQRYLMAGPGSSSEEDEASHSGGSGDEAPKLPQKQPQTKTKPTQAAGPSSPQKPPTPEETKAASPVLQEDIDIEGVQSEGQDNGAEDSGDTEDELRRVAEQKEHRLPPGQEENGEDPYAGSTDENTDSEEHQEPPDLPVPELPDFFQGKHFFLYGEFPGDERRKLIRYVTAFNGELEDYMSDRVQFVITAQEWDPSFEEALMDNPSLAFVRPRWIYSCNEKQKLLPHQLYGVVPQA
Binder,Kd [1] [nM],Kd [2] [nM]
His-XRCC1^161–406 (domain or fragment) PSQKVTVTKLGQFRVKEEDESANSLRPGALFFSRINKTSPVTASDPAGPSYAAATLQASSAASSASPVSRAIGSTSKPQESPKGKRKLDLNQEEKKTPSKPPAQLSPSVPKRPKLPAPTRTPATAPVPARAQGAVTGKPRGEGTEPRRPRAGPEELGKILQGVVVVLSGFQNPFRSELRDKALELGAKYRPDWTRDSTHLICAFANTPKYSQVLGLGGRIVRKEWVLDCHRMRRRLPSQRYLMAGP,~95,–
B1,–,~30
